The values below come from article PMC3408589 (Chemistry & biology, 2012).

This data set concerns the molecule itself. Kind of data set: cross-linking.

B1: untagged human ribonucleotide reductase α expressed in COS-1 cells (monocistronic cassette) (enzyme, UniProt P23921 1-792, looked up)
chain: MHVIKRDGRQERVMFDKITSRIQKLCYGLNMDFVDPAQITMKVIQGLYSGVTTVELDTLAAETAATLTTKHPDYAILAARIAVSNLHKETKKVFSDVMEDLYNYINPHNGKHSPMVAKSTLDIVLANKDRLNSAIIYDRDFSYNYFGFKTLERSYLLKINGKVAERPQHMLMRVSVGIHKEDIDAAIETYNLLSERWFTHASPTLFNAGTNRPQLSSCFLLSMKDDSIEGIYDTLKQCALISKSAGGIGVAVSCIRATGSYIAGTNGNSNGLVPMLRVYNNTARYVDQGGNKRPGAFAIYLEPWHLDIFEFLDLKKNTGKEEQRARDLFFALWIPDLFMKRVETNQDWSLMCPNECPGLDEVWGEEFEKLYASYEKQGRVRKVVKAQQLWYAIIESQTETGTPYMLYKDSCNRKSNQQNLGTIKCSNLCTEIVEYTSKDEVAVCNLASLALNMYVTSEHTYDFKKLAEVTKVVVRNLNKIIDINYYPVPEACLSNKRHRPIGIGVQGLADAFILMRYPFESAEAQLLNKQIFETIYYGALEASCDLAKEQGPYETYEGSPVSKGILQYDMWNVTPTDLWDWKVLKEKIAKYGIRNSLLIAPMPTASTAQILGNNESIEPYTSNIYTRRVLSGEFQIVNPHLLKDLTERGLWHEEMKNQIIACNGSIQSIPEIPDDLKQLYKTVWEISQKTVLKMAAERGAFIDQSQSLNIHIAEPNYGKLTSMHFYGWKQGLKTGMYYLRTRPAANPIQFTLNKEKLKDKEKVSKEEEEKERNTAAMVCSLENRDECLMCGS
On to B1, for which the stoichiometry N (in general, the number of molecules, sites or subunits per partner or assembly) amounted to 6.
